Tests used:
[1] = target: hCMV gH (HEK293T transfectant) (hCMV), P12824; assay: cell competition; competitor 11B12-biotin; details: remark: other sources report otherwise
[2] = target: hCMV gH (HEK293T transfectant) (hCMV), P12824; assay: cell competition; competitor 13H11-biotin; details: remark: other sources report otherwise
[3] = target: hCMV gH (HEK293T transfectant) (hCMV), P12824; assay: cell competition; competitor 3G16-biotin; details: remark: other sources report otherwise
gB 69-78 peptide (hCMV) = gB 69-78 peptide (hCMV) (UniProt P06473); assay: ELISA, gB 69-78 peptide

Binder	Inhibition of binding (%) [1]	Inhibition of binding (%) [2]	Inhibition of binding (%) [3]	EC50 (gB 69-78 peptide (hCMV))
3G16 (antibody, V domains shown) VH: RAQLVQSAAEMKNPGASVKVSCEASGYTFTGYYVHWMRQAPGQGLEWMGWINPMTGATKSPQKFQGRVTMTRDTSTTATHIELTRLRSDDSAVFFCARGGPTSTRITGKRHFDLWGRGTLITVAS VL: QSALTQPASVSGSPGESITISCTGTISDVGAYNSVSWYQQHSGTAPELIIYDVTNRPAGVSSRFSGSKSGNTASLTISWLQSEDEAEYYCSSYTTSDTYVFGSGTQVTVL	0%	0%	100%	
11B12 (antibody, V domains shown) VH: QMQLVQSGPQVKKPGTSVKVSCKASGFTFTSSAMQWVRQARGQRPEWIGWIVLGSGNTNYAQKFQERVTLTRDMSTATAYMELSSLRSEDTAVYYCAADRGRGGYNVYTYWGQGTLVAVSS VL: EIVMTQSPGTLSLSPGERATLSCRASQTISNTYVAWYQQKPGQAPRLLIYGASSRATGIPDRFSGSGSGTDFTLTIRRLEPEDFAVYYCQQNGQSPWTFGQGTNVEIK	100%	100%	0%	
13H11 (antibody, V domains shown) VH: QVQLVQSGAEVKKPGASVKVSCKASGYTFTNYYIHWVRQAPGQGLEWMGIIHPSSGGTSYAQKFQGRVTMTRDTSTSTVSMDLSSLRSEDTAVYYCGRAFRILGLSDVFVNDWGQGTVVTVSS VL: DIQMTQSPSSLSASVGDRVTITCRASQGINNYLAWYQQKPGKVPKLLIYAASTLQSGVPSRFSGSGSGTAFTLTILSLQPEDVATYYCQKYNSAPFTFGPGTKVDIK	100%	100%	0%	
6B4 (antibody, V domains shown) VH: QVQLVESGGGVVQPGRSLRLSCAASGFRFNEFNMHWVRQAPGKGLEWVAVISIDGRHKYNADSVEGRFTISRDNSRNTLYLQMNSLRVEDTALYYCVTDGKAVDGFSGILEFWGQGTPVTVST VL: EIVLTQSPATLSLSPGERATLSCWASQSVGGYLAWYQQKPGQAPRLLIYDASIRATGIPARFSGSGSGTHFTLTINSLEPEDFAVYYCQQRNNWPPLTFGGGTKVEIK				0.044 µg/mL
